Measurements from PMC9482650, “Quantitative fragmentomics allow affinity mapping of interactomes” (Nature Communications, 2022).

Legend:
Assay in all cases: holdup assay
Parameters in all cases: key: below the threshold = too weak to quantify, mostly under pKd 3.1 to 4
DFNB31_3, Q9P202 = molecular target: T1, DFNB31_3, Q9P202
T1 sequence (Q9P202 811-907, limits assumed, looked up): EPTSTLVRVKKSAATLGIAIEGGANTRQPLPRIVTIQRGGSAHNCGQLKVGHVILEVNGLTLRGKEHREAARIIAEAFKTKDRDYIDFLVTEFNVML

GRIP2_6, Q9C0E4 = molecular target: GRIP2_6, Q9C0E4
GRIP2_6, Q9C0E4, sequence (Q9C0E4 648-740): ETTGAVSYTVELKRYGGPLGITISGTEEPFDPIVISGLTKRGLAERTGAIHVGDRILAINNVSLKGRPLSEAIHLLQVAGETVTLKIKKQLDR

GRIP1_5, Q9Y3R0 = molecular target: T2, GRIP1_5, Q9Y3R0
T2 sequence (Q9Y3R0 568-668, limits assumed, looked up): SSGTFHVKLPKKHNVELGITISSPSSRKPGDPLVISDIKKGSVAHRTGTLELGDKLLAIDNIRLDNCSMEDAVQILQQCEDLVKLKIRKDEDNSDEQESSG

MPP2, Q14168 = molecular target: T3, MPP2, Q14168
T3 sequence (Q14168 180-250, limits assumed, looked up): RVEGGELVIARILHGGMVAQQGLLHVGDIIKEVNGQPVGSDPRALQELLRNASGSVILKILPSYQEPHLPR

TJP2_1, Q9UDY2 = molecular target: TJP2_1, Q9UDY2
TJP2_1, Q9UDY2, sequence (Q9UDY2 24-128): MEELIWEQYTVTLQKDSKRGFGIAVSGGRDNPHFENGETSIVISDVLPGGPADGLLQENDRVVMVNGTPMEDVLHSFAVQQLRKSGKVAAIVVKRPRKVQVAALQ

GRIP1_7, Q9Y3R0 = molecular target: T4, GRIP1_7, Q9Y3R0
T4 sequence (Q9Y3R0 999-1096, limits assumed, looked up): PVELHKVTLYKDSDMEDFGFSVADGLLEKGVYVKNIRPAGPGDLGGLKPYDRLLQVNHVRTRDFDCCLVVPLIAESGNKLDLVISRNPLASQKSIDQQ

SCRIB_3, Q14160 = molecular target: SCRIB_3, Q14160
SCRIB_3, Q14160, sequence (Q14160 999-1103): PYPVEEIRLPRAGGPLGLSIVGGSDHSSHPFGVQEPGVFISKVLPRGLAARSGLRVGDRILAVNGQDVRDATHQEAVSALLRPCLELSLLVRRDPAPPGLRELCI

DLG3_3, Q92796 = molecular target: T5, DLG3_3, Q92796
T5 sequence (Q92796 374-475, limits assumed, looked up): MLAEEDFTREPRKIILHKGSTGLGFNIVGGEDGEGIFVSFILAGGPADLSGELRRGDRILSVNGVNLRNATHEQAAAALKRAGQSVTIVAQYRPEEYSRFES

MAGI2_3, Q86UL8 = molecular target: MAGI2_3, Q86UL8
MAGI2_3, Q86UL8, sequence (Q86UL8 600-682): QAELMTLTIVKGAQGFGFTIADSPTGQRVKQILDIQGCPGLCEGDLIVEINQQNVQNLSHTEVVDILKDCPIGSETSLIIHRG

LNX2_3, Q8N448 = molecular target: T6, LNX2_3, Q8N448
T6 sequence (Q8N448 463-564, limits assumed, looked up): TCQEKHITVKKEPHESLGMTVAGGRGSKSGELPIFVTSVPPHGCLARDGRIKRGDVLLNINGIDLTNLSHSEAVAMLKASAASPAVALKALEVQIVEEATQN

NHERF3_1, Q5T2W1 = molecular target: T7, NHERF3_1, Q5T2W1
T7 sequence (Q5T2W1 4-100, limits assumed, looked up): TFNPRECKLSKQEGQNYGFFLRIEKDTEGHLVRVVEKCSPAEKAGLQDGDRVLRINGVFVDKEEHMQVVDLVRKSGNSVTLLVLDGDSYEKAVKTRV

NHERF4_1, Q86UT5-2 = molecular target: NHERF4_1, Q86UT5-2
NHERF4_1, Q86UT5-2, sequence (Q86UT5 other isoform, or with tags, fused parts or gaps): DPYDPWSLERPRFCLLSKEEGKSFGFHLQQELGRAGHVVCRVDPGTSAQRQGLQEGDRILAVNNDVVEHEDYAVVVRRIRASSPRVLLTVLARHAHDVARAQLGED

IL16_3, Q14005 = molecular target: IL16_3, Q14005
IL16_3, Q14005, sequence (Q14005 1107-1207): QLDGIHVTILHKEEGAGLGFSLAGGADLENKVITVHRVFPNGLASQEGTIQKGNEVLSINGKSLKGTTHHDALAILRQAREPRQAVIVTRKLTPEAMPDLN

LNX2_2, Q8N448 = molecular target: T8, LNX2_2, Q8N448
T8 sequence (Q8N448 334-432, limits assumed, looked up): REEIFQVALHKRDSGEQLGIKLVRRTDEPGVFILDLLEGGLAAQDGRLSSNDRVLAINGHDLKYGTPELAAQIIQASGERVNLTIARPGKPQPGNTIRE

LIMK2, P53671 = molecular target: LIMK2, P53671
LIMK2, P53671, sequence (P53671 143-248): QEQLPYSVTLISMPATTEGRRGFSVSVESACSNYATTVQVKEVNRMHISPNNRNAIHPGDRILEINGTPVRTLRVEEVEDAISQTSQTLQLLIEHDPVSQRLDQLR

DLG1_1, Q12959 = molecular target: DLG1_1, Q12959
DFNB31_2, Q9P202 = molecular target: T9, DFNB31_2, Q9P202
T9 sequence (Q9P202 274-371, limits assumed, looked up): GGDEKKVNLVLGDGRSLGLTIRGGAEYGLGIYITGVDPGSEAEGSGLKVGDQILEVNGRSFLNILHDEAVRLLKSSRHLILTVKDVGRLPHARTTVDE

LNX1_1, Q8TBB1 = molecular target: LNX1_1, Q8TBB1
LNX1_1, Q8TBB1, sequence (Q8TBB1 261-371): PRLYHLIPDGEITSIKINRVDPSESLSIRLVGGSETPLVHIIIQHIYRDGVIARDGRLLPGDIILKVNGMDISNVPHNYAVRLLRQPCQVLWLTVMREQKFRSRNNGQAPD

Inadl_4, Q8NI35 = molecular target: Inadl_4, Q8NI35
Inadl_4, Q8NI35, sequence (Q8NI35 547-651): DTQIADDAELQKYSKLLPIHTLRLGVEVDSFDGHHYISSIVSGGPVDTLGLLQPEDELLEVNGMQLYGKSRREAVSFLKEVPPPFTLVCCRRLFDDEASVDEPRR

FRMPD3, Q5JV73 = molecular target: FRMPD3, Q5JV73
FRMPD3, Q5JV73, sequence (Q5JV73 12-100): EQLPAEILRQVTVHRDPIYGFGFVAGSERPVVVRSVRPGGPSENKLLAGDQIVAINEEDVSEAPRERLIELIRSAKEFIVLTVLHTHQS

LIN7C, Q9NUP9 = molecular target: T10, LIN7C, Q9NUP9
T10 sequence (Q9NUP9 88-185, limits assumed, looked up): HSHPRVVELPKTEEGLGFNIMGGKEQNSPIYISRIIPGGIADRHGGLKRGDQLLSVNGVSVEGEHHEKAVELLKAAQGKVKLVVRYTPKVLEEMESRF

SCRIB_2, Q14160 = molecular target: SCRIB_2, Q14160
SCRIB_2, Q14160, sequence (Q14160 857-960): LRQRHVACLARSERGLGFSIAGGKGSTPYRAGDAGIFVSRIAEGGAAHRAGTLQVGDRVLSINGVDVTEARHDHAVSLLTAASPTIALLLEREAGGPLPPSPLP

PTPN13_1, Q12923 = molecular target: T11, PTPN13_1, Q12923
T11 sequence (Q12923 1088-1188, limits assumed, looked up): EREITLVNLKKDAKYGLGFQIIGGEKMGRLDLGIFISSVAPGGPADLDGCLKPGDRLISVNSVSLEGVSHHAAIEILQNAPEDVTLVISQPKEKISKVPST

PTPN3, P26045 = molecular target: PTPN3, P26045
PTPN3, P26045, sequence (P26045 505-587): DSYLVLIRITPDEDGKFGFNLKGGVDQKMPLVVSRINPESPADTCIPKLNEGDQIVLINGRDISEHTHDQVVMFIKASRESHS

MAGI1_2, Q96QZ7 = molecular target: MAGI1_2, Q96QZ7
MAGI1_2, Q96QZ7, sequence (Q96QZ7 456-580): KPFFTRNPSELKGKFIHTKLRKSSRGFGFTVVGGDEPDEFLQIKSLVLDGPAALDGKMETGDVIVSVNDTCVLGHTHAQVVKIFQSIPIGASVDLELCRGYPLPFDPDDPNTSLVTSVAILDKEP

DVL3, Q92997 = molecular target: T12, DVL3, Q92997
T12 sequence (Q92997 244-331, limits assumed, looked up): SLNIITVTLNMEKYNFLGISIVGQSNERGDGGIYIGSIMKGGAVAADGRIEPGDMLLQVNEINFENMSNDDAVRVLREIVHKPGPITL

[1] = plain residues with an end cap or a label only (N-terminal biotin on a linker: ahx)
[2] = plain residues with an end cap or a label only (N-terminal biotin on a linker: ado-ado)

## APSRKLNTEI [TIAM1, Q13009]
DFNB31_3, Q9P202; [1]
  pKd: below the threshold
GRIP2_6, Q9C0E4; [1]
  pKd: below the threshold
GRIP1_5, Q9Y3R0; [1]
  pKd: below the threshold
MPP2, Q14168; [1]
  pKd: below the threshold
TJP2_1, Q9UDY2; [1]
  pKd: below the threshold
GRIP1_7, Q9Y3R0; [1]
  pKd: below the threshold
SCRIB_3, Q14160; [1]
  pKd: below the threshold
DLG3_3, Q92796; [1]
  pKd: below the threshold
MAGI2_3, Q86UL8; [1]
  pKd: below the threshold
LNX2_3, Q8N448; [1]
  pKd: below the threshold
NHERF3_1, Q5T2W1; [1]
  pKd: below the threshold
NHERF4_1, Q86UT5-2; [1]
  pKd: below the threshold
IL16_3, Q14005; [1]
  pKd: below the threshold
LNX2_2, Q8N448; [1]
  pKd: below the threshold
LIMK2, P53671; [1]
  pKd: below the threshold
DLG1_1, Q12959; [1]
  pKd: below the threshold
DFNB31_2, Q9P202; [1]
  pKd: below the threshold
LNX1_1, Q8TBB1; [1]
  pKd: below the threshold
Inadl_4, Q8NI35; [1]
  pKd: below the threshold
FRMPD3, Q5JV73; [1]
  pKd: below the threshold
LIN7C, Q9NUP9; [1]
  pKd: below the threshold
SCRIB_2, Q14160; [1]
  pKd: below the threshold
PTPN13_1, Q12923; [1]
  pKd: below the threshold
PTPN3, P26045; [1]
  pKd: below the threshold
MAGI1_2, Q96QZ7; [1]
  pKd: below the threshold
DVL3, Q92997; [1]
  pKd: below the threshold

## TESNLQTSSC [CGN, Q9P2M7]
DFNB31_3, Q9P202; [1]
  pKd: below the threshold
GRIP2_6, Q9C0E4; [1]
  pKd: below the threshold
GRIP1_5, Q9Y3R0; [1]
  pKd: below the threshold
MPP2, Q14168; [1]
  pKd: below the threshold
TJP2_1, Q9UDY2; [1]
  pKd: below the threshold
GRIP1_7, Q9Y3R0; [1]
  pKd: below the threshold
SCRIB_3, Q14160; [1]
  pKd: below the threshold
DLG3_3, Q92796; [1]
  pKd: below the threshold
MAGI2_3, Q86UL8; [1]
  pKd: below the threshold
LNX2_3, Q8N448; [1]
  pKd: below the threshold
NHERF3_1, Q5T2W1; [1]
  pKd: below the threshold
NHERF4_1, Q86UT5-2; [1]
  pKd: 3.62
IL16_3, Q14005; [1]
  pKd: 3.53
LNX2_2, Q8N448; [1]
  pKd: below the threshold
LIMK2, P53671; [1]
  pKd: below the threshold
DLG1_1, Q12959; [1]
  pKd: below the threshold
DFNB31_2, Q9P202; [1]
  pKd: below the threshold
LNX1_1, Q8TBB1; [1]
  pKd: 3.47
Inadl_4, Q8NI35; [1]
  pKd: below the threshold
FRMPD3, Q5JV73; [1]
  pKd: below the threshold
LIN7C, Q9NUP9; [1]
  pKd: below the threshold
SCRIB_2, Q14160; [1]
  pKd: below the threshold
PTPN13_1, Q12923; [1]
  pKd: below the threshold
PTPN3, P26045; [1]
  pKd: below the threshold
MAGI1_2, Q96QZ7; [1]
  pKd: below the threshold
DVL3, Q92997; [1]
  pKd: below the threshold

## RSSGGDDFWF [KCNV1, Q6PIU1]
DFNB31_3, Q9P202; [2]
  pKd: 4.02
GRIP2_6, Q9C0E4; [2]
  pKd: below the threshold
GRIP1_5, Q9Y3R0; [2]
  pKd: below the threshold
MPP2, Q14168; [2]
  pKd: below the threshold
TJP2_1, Q9UDY2; [2]
  pKd: below the threshold
GRIP1_7, Q9Y3R0; [2]
  pKd: below the threshold
SCRIB_3, Q14160; [2]
  pKd: 4.29
DLG3_3, Q92796; [2]
  pKd: below the threshold
MAGI2_3, Q86UL8; [2]
  pKd: below the threshold
LNX2_3, Q8N448; [2]
  pKd: below the threshold
NHERF3_1, Q5T2W1; [2]
  pKd: 4.08
NHERF4_1, Q86UT5-2; [2]
  pKd: below the threshold
IL16_3, Q14005; [2]
  pKd: below the threshold
LNX2_2, Q8N448; [2]
  pKd: 3.8
LIMK2, P53671; [2]
  pKd: below the threshold
DLG1_1, Q12959; [2]
  pKd: below the threshold
DFNB31_2, Q9P202; [2]
  pKd: below the threshold
LNX1_1, Q8TBB1; [2]
  pKd: below the threshold
Inadl_4, Q8NI35; [2]
  pKd: below the threshold
FRMPD3, Q5JV73; [2]
  pKd: 4.82
LIN7C, Q9NUP9; [2]
  pKd: 4.1
SCRIB_2, Q14160; [2]
  pKd: below the threshold
PTPN13_1, Q12923; [2]
  pKd: below the threshold
PTPN3, P26045; [2]
  pKd: 4.35
MAGI1_2, Q96QZ7; [2]
  pKd: below the threshold
DVL3, Q92997; [2]
  pKd: 3.64

## GTGYDRKDYV [CLDN3, O15551]
DFNB31_3, Q9P202; [2]
  pKd: 4.06
GRIP2_6, Q9C0E4; [2]
  pKd: below the threshold
GRIP1_5, Q9Y3R0; [2]
  pKd: below the threshold
MPP2, Q14168; [2]
  pKd: below the threshold
TJP2_1, Q9UDY2; [2]
  pKd: 3.94
GRIP1_7, Q9Y3R0; [2]
  pKd: below the threshold
SCRIB_3, Q14160; [2]
  pKd: below the threshold
DLG3_3, Q92796; [2]
  pKd: 3.64
MAGI2_3, Q86UL8; [2]
  pKd: 3.48
LNX2_3, Q8N448; [2]
  pKd: below the threshold
NHERF3_1, Q5T2W1; [2]
  pKd: 4.55
NHERF4_1, Q86UT5-2; [2]
  pKd: 3.66
IL16_3, Q14005; [2]
  pKd: below the threshold
LNX2_2, Q8N448; [2]
  pKd: 4.04
LIMK2, P53671; [2]
  pKd: below the threshold
DLG1_1, Q12959; [2]
  pKd: below the threshold
DFNB31_2, Q9P202; [2]
  pKd: below the threshold
LNX1_1, Q8TBB1; [2]
  pKd: below the threshold
Inadl_4, Q8NI35; [2]
  pKd: below the threshold
FRMPD3, Q5JV73; [2]
  pKd: below the threshold
LIN7C, Q9NUP9; [2]
  pKd: below the threshold
SCRIB_2, Q14160; [2]
  pKd: below the threshold
PTPN13_1, Q12923; [2]
  pKd: below the threshold
PTPN3, P26045; [2]
  pKd: 4.04
MAGI1_2, Q96QZ7; [2]
  pKd: below the threshold
DVL3, Q92997; [2]
  pKd: 3.72

## RDPPAEWTRV [PTPN18, Q99952]
DFNB31_3, Q9P202; [2]
  pKd: below the threshold
GRIP2_6, Q9C0E4; [2]
  pKd: below the threshold
GRIP1_5, Q9Y3R0; [2]
  pKd: below the threshold
MPP2, Q14168; [2]
  pKd: below the threshold
TJP2_1, Q9UDY2; [2]
  pKd: 3.6
GRIP1_7, Q9Y3R0; [2]
  pKd: below the threshold
SCRIB_3, Q14160; [2]
  pKd: below the threshold
DLG3_3, Q92796; [2]
  pKd: below the threshold
MAGI2_3, Q86UL8; [2]
  pKd: 4.46
LNX2_3, Q8N448; [2]
  pKd: below the threshold
NHERF3_1, Q5T2W1; [2]
  pKd: 4.33
NHERF4_1, Q86UT5-2; [2]
  pKd: 3.62
IL16_3, Q14005; [2]
  pKd: below the threshold
LNX2_2, Q8N448; [2]
  pKd: 5.15
LIMK2, P53671; [2]
  pKd: below the threshold
DLG1_1, Q12959; [2]
  pKd: 4.09
DFNB31_2, Q9P202; [2]
  pKd: below the threshold
LNX1_1, Q8TBB1; [2]
  pKd: 3.73
Inadl_4, Q8NI35; [2]
  pKd: below the threshold
FRMPD3, Q5JV73; [2]
  pKd: below the threshold
LIN7C, Q9NUP9; [2]
  pKd: below the threshold
SCRIB_2, Q14160; [2]
  pKd: 4.12
PTPN13_1, Q12923; [2]
  pKd: below the threshold
PTPN3, P26045; [2]
  pKd: below the threshold
MAGI1_2, Q96QZ7; [2]
  pKd: below the threshold
DVL3, Q92997; [2]
  pKd: below the threshold
